According to the DeepSol protein solubility set:

Experiment: soluble on expression in E. coli; label from the status in PepcDB or PDB records

Soluble on expression in E. coli, not soluble:
MGSDKIHHHHHHMSDIPYQTIDTRALHRFAQPDRIAPAMYHDPALFEAELDRIFYRTWIWVAHDSELPNPGDFITTTIGRQPVIVVRDKTGEINVLQNRCRHRGATVCESHKGNAKGFTCPYHSWSYALDGTLRALPYGDGYEGVCEKGDLPLVKLRVGVYQGLIFASFNDDIEPLEDFLGGAKPWIDLFMKQGAGYPIKANGEHKFKFKGNWKIQLENTTDLYHFPVVHKSWMKSIDDETAAAITSFMTSEHAFCRALGNGHSLAVLMPELIDLDEDDGAPLPERFAPLAATLAERHAPDEVRRIVRSLLGVGFNLNLFPNLALSMAFFRVLRPISANETEIRHVALAMDGGPDEANRERLRIHEHFQGPFGFGSPDDAEAWERVQRGAHAGPDVPILVNRGLNRETTAANGEKTAHATDETGMREAYQQWRKLMEQA, MGSDKIHHHHHHMSDSVSIAKYMHRDCLHCPAPLVGTSFKPCHFADIVDNGLQDGFFEVHAENYMGKGGPPHRALSALRETYPVSVHGVCLSIGGPSPLDAHHLARFRDVVARYEPVLVSEHLAWSSHGGAFYNDLLPLPYTKATLDRVCAHVDQIQEAIARPLLLENPSTYVGFASSTMSETEFIAAVAGRTGCGLLLDINNAFVSATNHGCSAADYLADFPLEQVGEIHLAGHSEQRDDEDEPLLIDSHDRPIAGPVWALYASVIARTGPVPTLVEWDSQLPDWLVLRAQALEARRIMDAAVASPVEVADHAL, MGSDKIHHHHHHMSDVYIFCLSMGSPTLNTRVLTNSMELKVGCCGFPVSMKRYFETFDVVEVQKTFYKPPEVKTAEKWRKSAPEDFEFTIKAWQVITHPPSSPTYKKAGIKFENCGFFRPTEVVFMAWEETKKIAKALKAEIIVFQTPKSFRDTAENMENMRAFFSSIDGSFTFCFEPRGWSEESVRAICEELDLVHVVDPFVSKQLYGEICYYRLHGFDYKHKYTDDELEKLLGIVDRDGYVMFNNVHMFDDALRFKKLVEREAKSK, MGSDKIHHHHHHMSEALTIAGVDIQPGTQHQLELPVASLYTDTQVSIPVHVIRAKKDGPKVFVSAAVHGDELNGIEIIRRLIQSKLKLLKGTLILVPMVNVYGVLNQSRYMPDRRDLNRCFPGSPKGSLAGRVAYTFLNSIVQHCDYGIDLHTGAIHRSNLPQIRANLDDEQTLALAQAFGVPVLLNANVRDGSLREAAVNKGTRVLLYEAGQALRFDELSIQTGERGILNVLSSLGLIRKRRLRKKIEPFIANRSDWTRASASGFVCEFAKLGAYVEKGQVLAEINSPLGELIQSVVSNRTGIVIGKQNIPLVLEGDAMFHVAYFGSAADEVAEHIEIMNDQIMPLTTQTI, MGSDKIHHHHHHMSETEPTSEQPHIAITGGAGYIGSRVIYELQQAHPDWEITAIDNFYLGTVQSVGDVDIEHVDIRNRDRLEAALDGADVVMHLAAVSGVDDCEEKQDLAYEVNVQGTDNVAWFCRKTGAALIFPFSMAVIGDPQEFPITVDHPRDPLNWYGRTKLLNERDVETYADGAFPAHQFMISNLYGSHEIDGQTVSKGTVINFFVNRALAGETLTVYEPGTQSRNFIHVKDVARAYVDSCERLLEQLDRGETGVEKYEIASDEDPSVHTVAKLVRDIAADIADIDADVELVENPRGDDETLVDSFTVDTGRTTAALGWTPEHDVESAIRTALESANT, MGSDKIHHHHHHMSEYLEIPELNKAFPFRSFVNEGEVLVYPHWHKEIEIIYALKGSLNLGVNDMPIQLNEGEIQIINGGDVHYFLASPNSERIVIQFDLSLFQEEMQMDGQNGTLREMLTEMAHLSREWPEETTAKVQSLIRNIHLESSNDSPGKHYILKADLLAIIGLIYREIPQKKTQPDSVISEKAVLKSKETLQKLDQIFSYVEKHYQEPVSLQEVADYTGFSTYYFTKFFKRNTGMTFVTFLNDYRLNKAKWMLLNEAFPVTEVAELAGFSSVKTFHHAFKRAMGVAPLKYRKTIYGNN, MGSDKIHHHHHHMSFKKVDLSRYQFDGAQASSIGDLTQLDAADKQRLLYAGIDVNQQNLAGSFMHMNHSGVHCTSRQEGLEILDIKQALDTYHGLPDYFWKLVDRNKDEYTRAADEHLHGGYFIRARAGAKIEAPVQSCLFIKGNGVGQNVHNVVVVEEGAEMHIITGCATAHDTRSVAHLGISEFYVHKGGKLTFTMIHNWGEEAAVRPRSAGYLEEDAVFLSNYVLLKPVTDLQMYPTITLGGRGSVARFNSVIVAPTGSYVDTGNRILLEAPDTRGEIIARTMTTGGTIINRGHIAGHAVPARGHLECKGLILGGGVIHAIPELEGTQDGVELSHEAAVGKIAQEEIEYLMARGLDEDEATSTIVRGFLNVDIMGLPEELEKAVEEQINQLDAGDAM, MGSDKIHHHHHHMSGDTCLCPASGAKPKISGFKGGGLGNKYVQLNVGGSLYYTTVRALTRHDTMLKAMFSGRMEVLTDKEGWILIDRCGKHFGTILNYLRDDTITLPQSRQEIQELMAEAKYYLIQGLVSTCQTALQDKKDSYQPVCNIPIITSLREEDRLIESSTKPVVKLLYNRSNNKYSYTSNSDDHLLKNIELFDKLSLRFNGRVLFIKDVIGDEICCWSFYGQGRKLAEVCCTSIVYATEKKQTKVEFPEARIYEETLNVLLYETPRVPDNSLLEATSRSRSQASPSEDEDTFELRDRVRRIHVKRYSTYDDRQLGHQSTHRD, MGSDKIHHHHHHMSGKNKSVADIMAVCQEMFEDLNFNYARKWKAAKEGRKVIGFLPVYSPIEMIHAAGCLPLGIFGGGDQMEVIHGDAYYQSYICRIPRSTIELGVTNRLDFVDGMIFPFVCDVIRNLSGIWKLMFPNVWSKFFDTPQNYDKSIGGTYYIQELQELKEGLETLTGRKISDADIQRSIGLYNENRRLIREVYAFRAKQPWLAPTSEVYVLMRAGLMMDVEEHNQMLKDYMAAAAKEDRPKRDNVRISIYGSFCEQPPLNLIKSIEMAGCYVVDDDYSLNNRFLMVDVPTTGNPLEALAITYLENSVETSCKYVPDGKVKGQFHVDAVKACGAEGVIYATPSFCDPALLDRPMVCNKLSEAGIPYIAFKYAENSGQMQPIREQAGTFADSIKLWS, MGSDKIHHHHHHMSGRTMSSIYILWDASHIWGLLAWRTAQSLDLPYRLVRGEEIAQGLLSGKPPALLLVPGGNARMKSVALGAAGMQAIRDYVRGGGAYVGFCGGAGLGLSGSEGLGLCPWGRARFTDRMQHFVSGHVHARVARGHDLVPADLCTDACAEPPVPIWWPGRFAPEKTGDVEVLATYTTPCDDFWVADLPLDTLPPGTFSEWESLYDIRLRPTFLEDQPCILSGRYGKGRYVLSYTHLETPDSPTANRWLLHIIRTLGGIEPPLQRVPAWDLENQQAAWLDPDLLHARGIFDDIVTIGRNHCLFFKRNAWLIGWRAGIPGANLNNLYAAVVTAVSNPPTAECTAYWQEQRQPFMRKLALFHEGVKGYLLAERLAMTLSKTFPETVSRESLRNQRAALFGPPMDSGGLYQELLDTLDELLYRQLPHGL, MGSDKIHHHHHHMSHNKFDIIPAASFSNIGLEMIPPFPGLSSWVQCLWVNNDLKNSSRHVEEKLYPDAGSSLTFEIRNTRINARYFHHTRVVTHRWDTSTRHISVRFRPGGAKALLGLDIDDSQNIEIDLFDTPVSQQLSLQPLMDMLPALSADQQVQAVQNWLLTLSYRAQEPSRKWSTLLAHASADLIPPQQLALQNGFSRRTLERQLRKYLGFTPNQLHGFAQIRAARQYLILTPDSLSDIALACGYFDQAHFTNAFREQTLETPLQYRQRKMSQISNR, MGSDKIHHHHHHMSIARLREFVSDLTDIVGDDLHEAALLDRMRAPMTRLLAKDDWLPDAFAQPHPEFYQQYLLHCDPKQRFSVVSFVWGPGQKTPIHDHTVWGMIGMLRGSEHSTRFEVVGPDQPLRVAQTDVLEEGGIDVVSPSVGDVHQVSNVYDDRVSISIHVYGANIGRVRRHVYNGETGGVKEFVSGFSSSVVPNLWNAN, MGSDKIHHHHHHMSIESILKNRSSTRAFLDKPVTKETLDLIFAHAQLSPSNCNVQPWQTCVVSGQTKDTLKQKFMQTLMSGASPNPDFNWLPQYQGVHRDRQFGSANALYSSIGVAREDKKARQMAMVRNWQFFDAPHAVFFTMDKYLDIMGAVDLGIYAQTLSLIMADHGISNCMQGALGQFPDPVREILNLPAERGILFGMSFGYADDSAAVNNTRTDREPIENAVAFFD, MGSDKIHHHHHHMSIFISGSLAYDRIMNFPGKFSDHILPDKIHILNVCFLIDRLEEKRGGTAGNIAYSLALLGEKPTILATVGKDFDRYEEVLTGLGLPQDGIRKMDDQFTAGAYITTDQSDNQITGFNPAAMSHPCGYQFNGVTPENDLAIVSPGNLQDMVELPRKFRSMGMRYIFDPGQQITALTGDSMLECINGAHMLVSNDYELEMIMKATGRTKAELLTMTDYIITTLGENGSRIDNGEPVMVGIARPRQVLDPTGAGDAFRAGLLKGLTDGLDVAGAAKIGATCASFCVEHYGTQEHTFTPEEFKARHQAAFGA, MGSDKIHHHHHHMSIPNAIKHTQTDSALSNIALSNTRDHLLTTGYKLIAQKGFTAVGIKQILDTAGVPKGSFYHYFASKEAFGEAIISHYFTQYKQRLNIIGSQDVSAQQKLYDYFQNWYDTQQSGCDHEKCLVVKLSAEVSDMSEPMRKVLHTGYQQTITWLATQIKAGWVDGSVPHPANVAAESMAKRWYFAWLGASLVTKISQTDTPLAEAWLMTTTAMGR, MGSDKIHHHHHHMSIQTSDPNETSDLKSLSLIAAHSHITGLGLDENLQPRPTSEGMVGQLQARRAAGVILKMVQNGTIAGRAVLVAGPPSTGKTALAMGVSQSLGKDVPFTAIAGSEIFSLELSKTEALTQAFRKSIGIKIKEETELIEGEVVEIQIDRSITGGHKQGKLTIKTTDMETIYELGNKMIDGLTKEKVLAGDVISIDKASGKITKLGRSFARSRDYDAMGADTRFVQCPEGELQKRKTVVHTVSLHEIDVINSRTQGFLALFTGDTGEIRSEVRDQINTKVAEWKEEGKAEIVPGVLFIDEVHMLDIECFSFINRALEDEFAPIVMMATNRGVSKTRGTNYKSPHGLPLDLLDRSIIITTKSYNEQEIKTILSIRAQEEEVELSSDALDLLTKTGVETSLRYSSNLISVAQQIAMKRKNNTVEVEDVKRAYLLFLDSARSVKYVQENESQYIDDQGNVQISIAKSADPDAMDTTE, MGSDKIHHHHHHMSKKTYYYHSESEDLVSSAQQDFQLPDDYQFFREGVAWQFWNGLVRSLACAFAWLYSRLFLLVKVKGKEKLRPFKKQGYFVYGNHTQMLGDPFNPMTIVNPYHYYALAAQANWGIPFLGKYVIPAAGLPVGKNIKQSIRLLKDVKYAYEEKQAAIVIYPEAHLWPYYTKIRPFPATSFNFPVSLKAPAFAMTTTYQPCRWRKRPKITVYIDGPFYPDEKLGKKAAQEKLHGEIAKSMQERAKLSTCEYCSYVKIDSKN, MGSDKIHHHHHHMSKRLLLFDFDETYFKHNTNEEDLSHLREMEKLLEKLTNNNEVITAVLTGSTFQSVMDKMDQVNMTFKPLHIFSDLSSKMFTWNNGEYVESETYKKKVLSEPFLFEDIEDILRHISAQYNVEFIPQRAFEGNETHYNFYFHSTGNHNNDSRILEALVRYANDQNYTARFSRSNPLAGDPENAYDIDFTPSNAGKLYATQFLMKKYNIPVKSILGFGDSGNDEAYLSYLEHAYLMSNSRDEALKQKFRLTKYPYYQGITLHVKEFVEGKYDY, MGSDKIHHHHHHMSKSVDETVFDFFELLLHEDDSAFSASPIKSQASATSAFDVSIKTEAQQLNDAILAEHERSKVDARASIVPEAQLARAKSIVTVSTKENAEPLVNKQALERLLAPVLKTQAPDIPKPTELNEQPLPLPKPVEAIAVTNVVKPADVESQQVEIISTAPETQVGFAPPSVTKDLQEVLDDEFQVLFFKVAGLTLAVPLVSLGGIVKVERINHIIGRPSWFLGVQTHREEQLNLVDTCAWVMPEKYTDKLAQSVNYQYLVLLEGSNWGLACESLLNAVKIHKSQVNWRSKAGKRPWLAGVVKEQMCGILHVQALVQMLDAGLGCQDSIG
